In the supplement of paper PMC7125110:
± gives the standard error. This sample holds only a part of the variants without activity.

B1: glmS ribozyme (parent)
chain: AUAAAAGCGCCAGAACUACAGAAAUGUAGUUGACGAGGAGGAGGUUUAUCGAAUUUUCGGCGGAUGCCUCCAAA

Assays:
Conditions in all cases: with glucosamine-6-phosphate
glucosamine-6-phosphate [1] = variants of: B1; assay: self-cleavage kobs at 40 uM GlcN6P; higher = faster cleavage; RNA array
Outline: (§1)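 kcat and KM were obtained from weighted Michaelis–Menten fits across concentrations of kobs values. Those came from one- or two-exponential decay fits to per-tile medians normalised to baseline and to non-cleaving reference variants. The variants were barcoded ribozymes transcribed in situ by E. coli RNA polymerase on sequenced MiSeq chips and tracked through a hybridised Cy3 probe at 37 °C, with 40 μM to 10 mM glucosamine-6-phosphate in HEPES/KCl/Mg(OAc)2 buffer flowed in.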

glucosamine-6-phosphate [2] = variants of: B1; assay: self-cleavage kobs at 10000 uM GlcN6P; higher = faster cleavage; RNA array
Outline: as §1

glucosamine-6-phosphate [3] = variants of: B1; assay: self-cleavage kobs at 160 uM GlcN6P; higher = faster cleavage; RNA array
Outline: as §1

glucosamine-6-phosphate [4] = variants of: B1; assay: self-cleavage kobs at 640 uM GlcN6P; higher = faster cleavage; RNA array
Outline: as §1

glucosamine-6-phosphate [5] = variants of: B1; assay: self-cleavage kobs at 2500 uM GlcN6P; higher = faster cleavage; RNA array
Outline: as §1

Row | Variant | self-cleavage kobs at 40 uM GlcN6P (glucosamine-6-phosphate [1]) [s⁻¹] | self-cleavage kobs at 10000 uM GlcN6P (glucosamine-6-phosphate [2]) [s⁻¹] | self-cleavage kobs at 160 uM GlcN6P (glucosamine-6-phosphate [3]) [s⁻¹] | self-cleavage kobs at 640 uM GlcN6P (glucosamine-6-phosphate [4]) [s⁻¹] | self-cleavage kobs at 2500 uM GlcN6P (glucosamine-6-phosphate [5]) [s⁻¹]
1 | A48C C67U C71A | < 1e-05 | < 1e-05 | – | – | –
2 | G9U A15C U47C | < 1e-05 | – | – | – | –
3 | A42C A53U | < 1e-05 | – | < 1e-05 | < 1e-05 | –
4 | G9A C10U A14U U31C G40C C70A | < 1e-05 | < 1e-05 | – | – | –
5 | G35A U45A C61A G62C | < 1e-05 | – | – | – | –
6 | A48U G60C C61U | < 1e-05 | – | – | < 1e-05 | –
7 | U54C U56A | 0.000356 ± 6.9e-05 | 0.0163 ± 0.0038 | 0.000584 ± 0.00011 | 0.00291 ± 0.00036 | 0.00483 ± 0.00092
8 | U54G U56C | 6.58e-05 ± 1.3e-05 | 0.00518 ± 0.0011 | 0.000146 ± 2.8e-05 | 0.000986 ± 0.00024 | 0.00123 ± 0.00029
9 | A6U A33C | < 1e-05 | – | < 1e-05 | < 1e-05 | < 1e-05
10 | G7A G32A G51A G62C C68A | < 1e-05 | – | < 1e-05 | – | –
11 | U46C G51U | < 1e-05 | – | < 1e-05 | < 1e-05 | < 1e-05
12 | C61G C71G | 3.55e-05 ± 1.3e-05 | – | 0.000119 ± 3e-05 | 7.69e-05 ± 2.5e-05 | 4.16e-05 ± 1.6e-05
13 | A52C U56C | < 1e-05 | – | – | – | < 1e-05
14 | G38A G43U | < 1e-05 | < 1e-05 | < 1e-05 | < 1e-05 | –
15 | C10G G29A U54G | < 1e-05 | – | – | – | –
16 | A42U U54C U55C | < 1e-05 | 8.78e-05 ± 1.3e-05 | – | – | 5.79e-05 ± 1.6e-05
17 | G7A C50G | 4.24e-05 ± 1.5e-05 | – | 6.67e-05 ± 2e-05 | – | –
18 | G21U G40C | 0.000253 ± 6.1e-05 | 0.00248 ± 0.00053 | – | – | –
19 | C8A C58U | < 1e-05 | < 1e-05 | < 1e-05 | < 1e-05 | < 1e-05
20 | G7A G13U | < 1e-05 | – | < 1e-05 | < 1e-05 | –
21 | G41C U47C C68U | < 1e-05 | – | – | < 1e-05 | –
22 | C10U U55G | < 1e-05 | 2.49e-05 ± 9.6e-06 | < 1e-05 | – | –
23 | C61G U65C G66A | < 1e-05 | < 1e-05 | – | – | –
24 | C10U G66C | < 1e-05 | < 1e-05 | – | < 1e-05 | –

Row | Variant | self-cleavage kobs at 40 uM GlcN6P (glucosamine-6-phosphate [1]) [s⁻¹] | self-cleavage kobs at 10000 uM GlcN6P (glucosamine-6-phosphate [2]) [s⁻¹] | self-cleavage kobs at 160 uM GlcN6P (glucosamine-6-phosphate [3]) [s⁻¹] | self-cleavage kobs at 640 uM GlcN6P (glucosamine-6-phosphate [4]) [s⁻¹] | self-cleavage kobs at 2500 uM GlcN6P (glucosamine-6-phosphate [5]) [s⁻¹]
25 | C8A G13A U47G G60U | < 1e-05 | – | – | – | –
26 | A6U A33U A64G | < 1e-05 | – | – | – | < 1e-05
27 | C8G G41A | < 1e-05 | < 1e-05 | < 1e-05 | – | < 1e-05
28 | G29U U47A U57G | < 1e-05 | – | – | – | –
29 | A12C U30G G32U A33C C58U | < 1e-05 | < 1e-05 | – | – | –
30 | G29A G35U C50U | < 1e-05 | < 1e-05 | – | – | –
31 | G35U A52C | < 1e-05 | < 1e-05 | – | – | –
32 | A6G U45A G60C | < 1e-05 | < 1e-05 | – | – | –
33 | C8G G43A G59A G60U | < 1e-05 | – | – | – | –
34 | A6G G51U U57C | < 1e-05 | < 1e-05 | – | – | –
35 | A36G U56A | < 1e-05 | – | – | < 1e-05 | –
36 | U30A G60U | < 1e-05 | < 1e-05 | < 1e-05 | < 1e-05 | –
37 | A12U U47C G60A | < 1e-05 | < 1e-05 | – | – | –
38 | G35U A48G | < 1e-05 | < 1e-05 | < 1e-05 | < 1e-05 | –
39 | G32A U54G G59A | < 1e-05 | – | – | – | –
40 | A14G G66A | 0.000901 ± 0.00011 | 0.0634 ± 0.015 | 0.00369 ± 0.0009 | 0.00997 ± 0.0018 | 0.0046 ± 0.001
41 | C16A G35U G43C C68U | < 1e-05 | – | < 1e-05 | < 1e-05 | –
42 | G38U A53C | < 1e-05 | – | < 1e-05 | < 1e-05 | < 1e-05
43 | C10U G37A G44A U57C | < 1e-05 | – | – | – | –
44 | C67U C71G | 1.88e-05 ± 9.1e-06 | 5.12e-05 ± 5.1e-06 | 3.83e-05 ± 1.2e-05 | 4.78e-05 ± 5.4e-06 | 0.00068 ± 0.00033
45 | G9U G51A | < 1e-05 | < 1e-05 | < 1e-05 | < 1e-05 | –
46 | A14U G29U G44U U56A | < 1e-05 | – | – | – | –
47 | G7U G32U | < 1e-05 | < 1e-05 | < 1e-05 | < 1e-05 | < 1e-05
48 | G9C G62U | < 1e-05 | < 1e-05 | < 1e-05 | < 1e-05 | –
